# ± gives the half width of the 95% confidence interval.
# Experiment: folding stability dG unfold from trypsin proteolysis; higher = more stable
# Procedure, shortened: (§1)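 How resistant each design was to proteolysis was captured as K50, inferred by Bayesian fitting of sequencing counts. Unfolding free energy was then derived relative to a sequence-predicted unfolded-state K50 and a shared folded-state K50, per protease or combined. Digestion used trypsin and chymotrypsin at 11 threefold-diluted concentrations plus a no-protease condition, on mini-proteins under 80 residues without cysteine in a PA-tagged cDNA display construct. Designs were kept only when AlphaFold2 dimer inter-PAE was above 15.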
row,Sequence,folding stability dG unfold [kJ/mol]
1,SAGGSMTFKAEVTPLDTFPLFDANGKPVAEVKVYTATIEFPDGSRVEIRGVEVGDELYILEIRPLDSAGGSA [r2_158_TrMRF],6.45 ± 0.351
2,SAEEAAKNFKPIRIRLRDPRGRLYEVERIELTPDGRLLITLRLPNETRTYLIEPDHPFPLPPDLIIEVEGSA [r9_993_TrMRF],11.5 ± 0.205
3,SAGGLEEKILEAVKNMSPEEPVVEREVELPDGKLKVTVTRDGLPYTVTITRTNPDGTTTTTTTTILLSAGGS [r16_642_JUSTAS],10.3 ± 0.669
4,SAGGMPIKSKKEAEEFIKKGGAKYLSKTKVKVKGEEKEKEFEVYEFVFKDPKTNKPILVVVPKEYIGSAGGS [r16_271_TrMRF],-0.193 ± 0.837
5,SAGGSAGGFKIPPGKTIMIQYPDGWMWRIKVKDGNTHMFKSPEEIEKLLNKPGFEIEIEWFPLDSAGGSAGG [r6_433_TrROS],6.8 ± 0.347
6,SAGGSNFKPLEAEIYRNPDGKDVVQIMITFPDPNGKPFTVNIWIYPDGKIKISVYYNGKKEEIEIPSAGGSA [r2_182_TrROS],8.18 ± 0.544
7,SAGGSAGGSAGPEVIEIKNPKTGKTYRIVRNKDGKLLIYNEATGKVAVFKDGKIELVPAPSAGGSAGGSAGG [r17_476_TrROS_Hall],4.75 ± 0.293
8,SAPNIEIDYNKDNGMITIRLPGTGVEYMIPMPDGQLMAIDIEVKPDPDGKRKISIEIYFPDGKEHEFEISAG [r14_675_TrROS],9.18 ± 1.21
9,SAGGSAGGSPPDFVIQPEVEHTRDPENGKHEATVKIEIMDGRPIEIPFKSPEDAEDAIKELINSAGGSAGGS [r12_389_TrROS],4.76 ± 0.331
10,SAGGSAGGSAGGKNKYYVRVKIKNPNGRTRKINFPFDDPDQIKEQAQKEGWKIDEVEPVSAGGSAGGSAGGS [r10_882_TrROS],-1.33 ± 1.05
11,SAGPPKTRTVMFPPEDIPKILEELKKLPPDITIHFPDPDPGNWFMIEVTDDEIKIENPGNGEERTIPISAGG [r19_154_TrROS],-2.98 ± 1
12,SAGGSAGGSAGGGTVTLEIELKVKPGEKIKDLATGEEFEVKEGETVRIRITLPLPPAPEESAGGSAGGSAGG [r7_234_TrROS_Hall],4.03 ± 0.285
13,SALIETAEELARELGVEAELVEIEEGEDVALLRIRLRVDGVPYYFLVRIERPGEDPRIFRVEILEVRPESAG [r14_387_TrMRF],15.4 ± 0.297
14,SAGGSAGGMRLVVEDFDEEEMEEVERRVREFAEEHDVEVDIYRRRRPDGRVVLVVEIRPKEDLPSAGGSAGG [r6_906_TrMRF],12 ± 0.243
15,SIIIQFDNPEEAKENAEDFINEFQDEFGPGQKIPITIHDPGGDPATFPIEIEPPPPPVEYDEENGKLKPDSA [r9_596_TrROS],4.73 ± 0.753
16,SAGGSAGGGDEVKTFKAKVKLVSVDPETGEQLVLAEVPDGKPILVKVPKSFPLKEDEIVEFELSSAGGSAGG [r6_68_TrMRF],4.87 ± 0.113
17,SAMELSPEERAELLIEAVRRKLEEARKKGIPNKKVKVTIVLSEEEREALAKRIEEELKEEGYEVEIVPESAG [r14_908_TrROS_Hall],9.08 ± 0.285
18,SAGGMKIKIEVIDPDGKKRVIEIDASTPEEIKAALDALPPGAVVRIVVPSPELREALKEAGVDEVVELSAGG [r13_476_TrROS_Hall],18.3 ± 0.962
19,SAGGSAGGSPSVLDQVKRMIQDRIQERFGLPPGYTVQVTIDVEIDDGGIRIKKIKAEIQPPDNSAGGSAGGS [r12_481_TrROS],8.87 ± 0.397
20,SAGGSAGGSAGGSGLYLRLFDPGTGNVVAEVRVEIAPDGSLIAEARVADVPPVEDPEKASAGGSAGGSAGGS [r4_178_TrMRF],2.98 ± 0.201
21,SMKKNYKIKIEIIDIKIYNKNIPKNKPKYITIKAKITIYYKNKPYKYTIEIKYKIYNGKIYIIGSKIKPESA [r9_270_TrMRF],14.1 ± 0.418

row,Sequence,folding stability dG unfold [kJ/mol]
1,SAGGSAGGMKLTLRIEAPREEVERLAKEFEAQGIKVTVKPRPDGRVELTLEIDLPDTDKSLFDPSAGGSAGG [r6_8_TrMRF],10.4 ± 0.711
2,PPTSPEFRKALENIKKVDIEIEPYPNDGMVRMSIELKFPDKPVEIDIHYQYDPDGKINGMWARLDGKWIPIS [r1_274_TrROS],4.6 ± 0.381
3,MTVTVPPDGTVTITLTDPSGNTYTFTIPVTDPAELRARLEEAIRELFPEFEDIPVRVVAVDGPAVVVEVPLS [r1_389_JUSTAS],12.6 ± 0.502
4,SAGGSAGGSAGGGVKYRVLLPKDVNPEKAAELLKPYGVKVVSIEEVEEGFYLIEVEKPESAGGSAGGSAGGS [r10_591_TrMRF],4.93 ± 0.134
5,EKYIVKIKITVRRKVETETLPDGSKKTRYETKTLEIEIEVSLEELKKLLEELNLPEDEITSVEIEVYPEEES [r1_351_TrROS_Hall],13.8 ± 1
6,SAGGSAMSPEEVEEKIKEIAKKLGVEIEVKVEISPEGGIKITVKVNDKFDINEIKKGIEEALGIKLSAGGSA [r15_807_JUSTAS],18.4 ± 2.3
7,SAGGPKIKIEAFPDGTVKITIELPDGVTIVIELKFDPETGTVHAKITLLPKDKPVTFEFTFKIPPDASAGGS [r16_230_TrMRF],14 ± 1.46
8,SAGGSAGGSAGGMTVVERTIEVEPDAKVIPLNLPGSNISATVLEYDPETGTLKVKIYVKESAGGSAGGSAGG [r17_198_JUSTAS],2.03 ± 0.209
9,SAGGAVVTPETEGDRTFVTTTDPESGSRTVTVTTYDPTTNTATTTTYFVPPDGVPTRVATTTTPLPPTSAGG [r13_768_JUSTAS],5.04 ± 0.322
10,SAGSYSVTADVTVHPDGTVDVTLTITTNGEDGTTETSTVLPLTLDLPPGTAVTVTVDPNNGTVTVTVEASAG [r5_179_JUSTAS],12.6 ± 0.586
11,SAEVYEFGNAVVVVTTSPDGTVRVYVFNPETGEVTEIEIHPDTPGEYKVRPLGNGEVKEATVPVSDILPVSA [r9_1071_TrMRF],3.56 ± 0.213
12,SAMEVKIEKVEVKDGTVRITVTVKVSEEQLEKVKELAEKLKEKGYEVKVVKVEKLEDGTIKVEIEVKPKSAG [r14_354_TrROS_Hall],11.3 ± 1.34
13,SAGGSAGGSAGMEPIRVTVTTQDTATGTTTTTTVTVPTDVPVEAVLAALDPALVTAVTVESAGGSAGGSAGG [r11_386_JUSTAS],7.03 ± 0.255
14,SAGGSAGGSAGIPLGPDGGLIVTEGPDGPVEERLFASPEEARRWIEEHLPEGWRVVFRPLSAGGSAGGSAGG [r11_983_TrMRF],4.81 ± 0.0711
15,SMPAEMSPEEVREAVRALVEEALAANPGEPVTVPIEEIRAALPGYSPEVLREVLGLTEEEIAAGPVTLRLSA [r9_525_JUSTAS],3.7 ± 0.176
16,SAGGSAGGSKAKIEVLEVFPDYIVYKIETENPVIAVIVPLPNGKVKIFVFNPNGEPIAEFELGSAGGSAGGS [r12_1061_TrMRF],8.52 ± 0.753
17,SAGGSAGGSAGPTVASVEVLEYDPETGYLTVRIYIPDNGEWVDVKAPVGTAEEIVKAAEKSAGGSAGGSAGG [r17_111_TrMRF],1.94 ± 0.322
18,SASPWIQKLAEEIADELAKENGWEEVKFTVTLPIRMPMYRYDPNGKKEPHDMWMWIKFEVTARVPPGDPSAG [r14_232_TrROS],9.54 ± 0.255
19,SWYIIRIEIKIRNPKDGKSFDIEIMIHAPVEEAKEIAKEIASMFPGMRVEVKITEVMPMPPMTPEQLEKMSA [r9_421_TrROS],9.33 ± 0.339
20,SYLPESVPYDLVELTVVAKGKSPEYLEKKIKEAFKDVKIEPFYDPEKKLVTFKIVFPNKETAEKFKELVSSA [r9_764_TrMRF],8.09 ± 0.226
21,SAGTLTLELEVEVDGVLVRVRVEVRPGEEVEVRVEVEVRELPPEPEVEEEEKVELSEEDLERLRRLAEESAG [r5_958_TrROS_Hall],10.3 ± 0.297

# Experiment: folding stability dG unfold from chymotrypsin proteolysis; higher = more stable
# Procedure, shortened: as §1
row,Sequence,folding stability dG unfold [kJ/mol]
1,SAGGSMTFKAEVTPLDTFPLFDANGKPVAEVKVYTATIEFPDGSRVEIRGVEVGDELYILEIRPLDSAGGSA [r2_158_TrMRF],9.72 ± 0.544
2,SAEEAAKNFKPIRIRLRDPRGRLYEVERIELTPDGRLLITLRLPNETRTYLIEPDHPFPLPPDLIIEVEGSA [r9_993_TrMRF],15 ± 0.18
3,SAGGLEEKILEAVKNMSPEEPVVEREVELPDGKLKVTVTRDGLPYTVTITRTNPDGTTTTTTTTILLSAGGS [r16_642_JUSTAS],9.93 ± 0.192
4,SAGGMPIKSKKEAEEFIKKGGAKYLSKTKVKVKGEEKEKEFEVYEFVFKDPKTNKPILVVVPKEYIGSAGGS [r16_271_TrMRF],5.32 ± 0.628
5,SAGGSAGGFKIPPGKTIMIQYPDGWMWRIKVKDGNTHMFKSPEEIEKLLNKPGFEIEIEWFPLDSAGGSAGG [r6_433_TrROS],7.26 ± 1
6,SAGGSNFKPLEAEIYRNPDGKDVVQIMITFPDPNGKPFTVNIWIYPDGKIKISVYYNGKKEEIEIPSAGGSA [r2_182_TrROS],14.9 ± 0.502
7,SAGGSAGGSAGPEVIEIKNPKTGKTYRIVRNKDGKLLIYNEATGKVAVFKDGKIELVPAPSAGGSAGGSAGG [r17_476_TrROS_Hall],3.45 ± 0.879
8,SAPNIEIDYNKDNGMITIRLPGTGVEYMIPMPDGQLMAIDIEVKPDPDGKRKISIEIYFPDGKEHEFEISAG [r14_675_TrROS],10.2 ± 0.711
9,SAGGSAGGSPPDFVIQPEVEHTRDPENGKHEATVKIEIMDGRPIEIPFKSPEDAEDAIKELINSAGGSAGGS [r12_389_TrROS],1.6 ± 0.41
10,SAGGSAGGSAGGKNKYYVRVKIKNPNGRTRKINFPFDDPDQIKEQAQKEGWKIDEVEPVSAGGSAGGSAGGS [r10_882_TrROS],-0.268 ± 1.21
11,SAGPPKTRTVMFPPEDIPKILEELKKLPPDITIHFPDPDPGNWFMIEVTDDEIKIENPGNGEERTIPISAGG [r19_154_TrROS],1.05 ± 0.46
12,SAGGSAGGSAGGGTVTLEIELKVKPGEKIKDLATGEEFEVKEGETVRIRITLPLPPAPEESAGGSAGGSAGG [r7_234_TrROS_Hall],4.65 ± 0.326
13,SALIETAEELARELGVEAELVEIEEGEDVALLRIRLRVDGVPYYFLVRIERPGEDPRIFRVEILEVRPESAG [r14_387_TrMRF],18 ± 0.142
14,SAGGSAGGMRLVVEDFDEEEMEEVERRVREFAEEHDVEVDIYRRRRPDGRVVLVVEIRPKEDLPSAGGSAGG [r6_906_TrMRF],12.6 ± 0.142
15,SIIIQFDNPEEAKENAEDFINEFQDEFGPGQKIPITIHDPGGDPATFPIEIEPPPPPVEYDEENGKLKPDSA [r9_596_TrROS],7.13 ± 0.711
16,SAGGSAGGGDEVKTFKAKVKLVSVDPETGEQLVLAEVPDGKPILVKVPKSFPLKEDEIVEFELSSAGGSAGG [r6_68_TrMRF],5.48 ± 0.151
17,SAMELSPEERAELLIEAVRRKLEEARKKGIPNKKVKVTIVLSEEEREALAKRIEEELKEEGYEVEIVPESAG [r14_908_TrROS_Hall],10.9 ± 0.544
18,SAGGMKIKIEVIDPDGKKRVIEIDASTPEEIKAALDALPPGAVVRIVVPSPELREALKEAGVDEVVELSAGG [r13_476_TrROS_Hall],11.6 ± 0.289
19,SAGGSAGGSPSVLDQVKRMIQDRIQERFGLPPGYTVQVTIDVEIDDGGIRIKKIKAEIQPPDNSAGGSAGGS [r12_481_TrROS],10.1 ± 0.226
20,SAGGSAGGSAGGSGLYLRLFDPGTGNVVAEVRVEIAPDGSLIAEARVADVPPVEDPEKASAGGSAGGSAGGS [r4_178_TrMRF],10 ± 0.301
21,SMKKNYKIKIEIIDIKIYNKNIPKNKPKYITIKAKITIYYKNKPYKYTIEIKYKIYNGKIYIIGSKIKPESA [r9_270_TrMRF],15.74 ± 0.105

# Reference: the supplement of paper PMC12764529
